Test results as given in the nanobody polyreactivity screen of Harvey et al. (2022).

Test: yeast display, Sf9 membrane polyspecificity reagent, FACS + sequencing; frameworks hold sequencing errors
In short: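 Genes from sorted yeast were amplified by colony PCR, read by MiSeq 2 × 250 sequencing and filtered on CDR length. These cells carried a synthetic nanobody library in Saccharomyces cerevisiae BJ5465 and were sorted by FACS into low and high (top ~1%) gates on anti-HA and streptavidin fluorescence. Polyreactivity is labelled according to the gate of origin.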

Row | Sequence | polyreactivity (PSR sort gate)
1 | QVQLVESGGGLVQAGGSLRLSFAASGITFVRYAMGWYRQPPGKERALVAAISRSGTSTYSADSVKGRFTISRDNAKNTVYLQMNSLKPEDTAVYYCYVRRYDYWGQGTQVTVSS | high polyreactivity
2 | QVQLVESRGGLVQAGGSLRLSCAASGSIFYRNVMGWYTQAPRKEREWVAAISGRGGSTYYADSVKGRFTISRDNAKNTVYLQFTSLKPEDTAVYYCATELTYRHGYWGQGTQVTVSS | high polyreactivity
3 | QVQLVESGGGLVQAGGSLRLSCAASGSIFAYYAMGWYRQAPGKERELVADITSSGGITYYADSVKGRFTISRDNAKNTVYLQMNSLKPEDTAVYYCNADSWAIGGGSYPYDYWGQGTQVTVSS | low polyreactivity
4 | QVQLVESGGGLVQAGGSLRLSCAASGRIFYYNAMGWYRQAPGKERELVAAITFDGGRTYYADSVKGRFTISRDNAKNTVYLQMNSLKPEDTAVYYCAASWYYSDFYMYYWGQGTQVTVSS | high polyreactivity
5 | QVQLVESGGGLVQAGGSLRLSCAASGRTFTVYAMGWYRQAPGKERELVAAIRRRGGSTYYADSVKGRFTISRDNAKNTVYLQMNSLKPEDTAVYYCAADNWYKKQKRPSAYDYWGQGTQVTVSS | high polyreactivity
6 | QVQLVESGGGLVQAGGSLRLSCAAARYAMGWYRPAPGKERELVAAISKSGGSTYYADSVKGRFTISRDNAKNTVYLQMNSLIPEDTAVYYCAARGHAGRGEYYYWGQGTQVTVSS | high polyreactivity
7 | QVQLVESGGGLVQAGGSLRLSCAASGRTLEDYVMGWYRQAPGKERELVAAIYWSGVSTYYADSVKGRFTISRDNAKNTVYLQMNSMKPEDTAVYYCAKDSTADELTGFDYWGQGTQVTVSS | low polyreactivity
8 | QVQLVESGGGLVQAGGSLRLSCAASGRILLGNVMGWYRQAPGKERELVAAISIGGNTNYADSVKGRFTISRDNANNTVYLQMNSLKPEDTAVYYCNARSLVFPITFWEYDYWGEGTQVTVSS | low polyreactivity
9 | QVQLVESGGGLVQAGGSLRLSCAASGRIDLDYDMGWYRPAAGKERELVATISSGGSTNYADSVKGRFTISRDNAKNTVYLQMNSLKPDDTAVYYCNKDYHVRYYYWGQGTQVTVSS | low polyreactivity
10 | QVQLVESGGGLVQAGGSLRLSCAASGFTFITNAMGWYRQAPGNERELVASISIGGSTNYADSVKGRFTISRDNAKNTVYLQMNSLKPEDTAVYYCAARVYRRLFLPGRFGRPLGYWGQGTQVTVSS | high polyreactivity
11 | QVQHVESGGGLLQAGGSLRLSCAASGGTFTPNVMGWYRQAPGKVRELVAAIDDSGSRTYYADSVKGRFTISRDYAKNTVYLQMNSLKPEDTAVYFCAVFWYGTYPMYYWGQGTQVTVSS | low polyreactivity
12 | QVQLVESGRGLVQAGGSLRLSCAASGIIFTRYAMGWYRQAPGKERDLVAGISYSGSSTYYADSVKGRFTISRDNAKNTVYLQMNSLKPEDTAVYYCAAEFVTYYSSSKRAYYYWGQGTQVTVSS | high polyreactivity
13 | QVQLVESGGGLVQAGGSLRLSCAASGRTYYYYAMGWYRQAPGTQRELVASIRYSTGSTYYADSVKARFTISRDNAKNTVYLQKNSLKPVDTAVYYCAGLRYARASRYDYWGLGTQVTVSS | high polyreactivity
14 | QVQLVESGGCLVQSGGSLRLSCAATGSTFGRNAMGWSRQAPGKESELVAAISRGGGITYYADSVKGRFTISRDNAKNTVYFQMNSLKPEDTAVYYCNAYLSKYFRYDYWGQGTQVTVSS | high polyreactivity
15 | QVQLVESGGGLVQAGGSLRLSCAASGRTFPPYAMGWYRQAPGKERELVASIRRGGSTHYADSVKGRFTISRDNAKNTVYLQMNSLKPEDTAVYYCNADVIFGYTHYNYWGQGTQVTVSS | high polyreactivity
16 | QVQLVESGGGLVQAGGSLRLSCAASGSSFDDKAMGWYRQAPGKERELVASITYRGGSTYYADSVKGRFTISRDHAKNTVNLHIKSLKPEVTAVYYCDKGHYFKYDYWGQGTQVTVSS | low polyreactivity
17 | QVQLVESGGGLVQAGGSLRLSCAASGNTFAHYVMGWYRQAPGKERELVASITSGGSTNYADSVKGRFTISRDNAKNTVYLQMNSLKPEDTAVYYCAVSLSYWYEAFTTRIDYYYWGQGTQVTVSS | high polyreactivity
18 | QVQLVESGGGLVQAGGSLRLSCAASGFTFAAYAMGWYRPAPGKERELVAAITSRDGTTYYADSVKGRFTISRNNAKNTVYLQMNSLKPEDTAVYYGAKDHFTWGVSEDDYWRQGTQVTVSS | low polyreactivity
19 | QVQLVESGGGLVQAGGSLRLICAASGFTFHSYAMGWYRQAPGKERELVAAITTDGSTYYADSVKGRFTISRDNAKNTVYLQMTSLKPEDTAVYYCAAGKAYWYARKPYARYYYWGQGTQVTVSS | high polyreactivity
20 | QVHVVESGGGLVQAGGSLRLSCAASGSSFYHYAMGWYRQAPGKERELVAAISGSGGSTYYADSVKGRFTISRDNAKNTVYLQMNSLKPEDTAVYYCAADTSRYHYTRYFFDSDYWGQGTQVTVSS | low polyreactivity
21 | QVQLGESGGVLVQAGGSLRLSCAASGRIFSENAMGWYRQATGKEWELVAAITGNGGDTYYADSVKGRFTISRDTAKNTVYLQMNSLKPEDTAVYYCAAETGGLGGDYWGQGTQVTVSS | low polyreactivity
22 | QVLLQESGGGLVQAGGSLRMSCAASGNIFSAGGMGWYRQAPVNERELVAGIGTGTSTNYADSVKGRFTISRDNAKNTVYLQMNSLKPEDTAVYYCAAAYYSGLSHWYWGQGTQVTVSS | low polyreactivity

Row | Sequence | polyreactivity (PSR sort gate)
23 | QVQLVESGGGLVQAGGSLRFSCAASGGIFWHYTMGWYRQAHGKERELVAAITRRGGSTYYADSVKGRFTISRDNAKNTVYLQINSLKPEDTAVYYCAADFLPQSYNWYDYWGQGTQVTVAS | low polyreactivity
24 | QVQLVESGGGLVQAGGSLRLSCAASGRIFRSYAMGWYREAPGKERELVAAISSGGSTNYADSVKGRFTISRDNAKNTVYLQLNSLKPEDTAVYYCAAELWAYTWYWHSDYWGQGTQVTVSS | low polyreactivity
25 | QVQLVESGGGLVQAGGSLRLSCAASGRTFVFNAMGWYRPAPGKERELVAAITKNGGSTYYADSVKGRFTISRDNAKNTVYLQMNSLKPEDTAVYYCAAQWWRLYWEYYYWGQGTQVTVSS | low polyreactivity
26 | QVQLQESGGGLVQAGGCLRLSCAASGSIFTYAVMGWYRQAHGKEHELVATIDTGSSTYYADSVKGRITISRDNAKNTLYLQMNSLIPEDTAVYYCAVNTYCRVRYRYWGQGTQVTVSS | high polyreactivity
27 | QVQLVESGGGLVQAGGSLRLSCAASGGTFPQFAMGWYRQAPGKEREFVADITSRGGTTYYADSVKGRFTISRDNAKNTVYLQMNSLKPEDTAVYYCAADNPADWWGLDYWGQGTQVTVSS | low polyreactivity
28 | QVQLVESGGGLVQAGGSLRLSCAASGRILYWYTMGWYRQAPGKERELVAAITDSVGRTYYADSVKGRFTISRDNAKNTVYLQMNSLKPEDTAVYYCNADPYAQQPYSYYYGYDYWGQGTQVTVSS | low polyreactivity
29 | QVQLVESGGGLVQSGGSLRLSCAASGFTLYYYAMGWYRQAPGKERELVARISGSSGRTYYADSVKGRFTISRDNAMNTFYLQMNSLKPEDTAVYFCAARYYTSATMDYWGQGTQVTVSS | high polyreactivity
30 | QVQLVESGGGLVQAGGSLRLSCAASGSIFDLNAMGWYRQAPGKERELVAAISKSGGSTYYADSVKGRFTISRDNAKNTVYLQMNSLKPEDTAVYYCAARYHYPGNWYNYWGQGTQVTVSS | low polyreactivity
31 | QVQLVESGGGLVQAGGSHRLSCAATGFTFSYYSMGWYRQAPGKERELVAAITSSAGSTYYADTVKGRFTISRDNAKNTVYLQMNSLKPEDTAVYYCNAVYSKLNGGYDYWGQGTQVTVSS | low polyreactivity
32 | QVQLVESVGGLGQARVRLRLSCAASGITFYRYAMGWYRQAPGKERELVAAITSRGTSTYYADSVKGRFTISRDNAKNTVYLQMNSLKPEDTAVYYCAAVLFVGDGGYDYWGQGTQVTVSS | high polyreactivity
33 | QVQLVESGGGLVQAGGSLRLICAASGSIFGSSAMGWYRQAPGKERSTYYADSVKGRFTISRDNAKNTVYLQMNSLKPEDTAVYYCAADTYGYQGSAGGHWGQGTQVTVSS | low polyreactivity
34 | QVQLVESGGGLVQAGGSLRLSCAASGRIFRWYAMGWYRQAPGKERELVAAISYSGGSTYYADSVKGRFTISRDNAKNTVYLQMNSLKPEDTAVYYCAAATYYKFDYWGQGTQVTVSW | high polyreactivity
35 | QVQLVESGGCLVQAGGSLRFTCAASGSIFPYYAMGWYRQAPGKERELVAAISGSGGSTYYADSVTGRFTISRDNAKYTVYLQMNSLNQEDTAVYYCAARPFARYEYWGQGTQVTVSS | low polyreactivity
36 | QVQLVESGGGLVQAGGSLRLSCAASGIIFHIYAMGWYRQAPGTERELVAAISTGSSTYYADSVKGRFTISRDNAKNTVYLQMNSLKPEDTAVYYCNAVSRYLWVKGFDYWGQGTQVTVSS | low polyreactivity
37 | QVQLVESGGGLVQAGGSLRLSCAASGRIFTGNVMGWYRQAPGKERELVAAISRRGGGTYYADSVKGRFTISRDNAKNTVYLQMNSLKPEDTAVYYCAAQYRSQGQPKGGVLYYYWGQGTQVTVSS | high polyreactivity
38 | QVQLVESGGGLVQAGGSLRLSCAASGRTIASYTMGWYRPAPGKERELVAAISKSGGSTYYADSVKGRFTISRDNAKNTVYLQMNSLKPEDTAVYYCAKRRSGNVRKYDYWGQGTQVTVSS | high polyreactivity
39 | QVQLVESGGGLVQAGGSLRLSCAASGRIFGYNAMGWYRQAPGKERELVAAITNGGSTNYADSVKGRFTISRDNAKNTVYLQMNSLKPEDTAVYYCVAYVGSTYSAPEYYWGQGTQVTVSS | low polyreactivity
40 | QVQLVESGGGLVQAGGSLRLSCAAYGLTFYFYAMGWYRQAPGKERELVAAIDWGGGSTYYADSVKGRFTISRDNAKNTVYLQMNSLKPEDTAVYYCAARGYYYNYDVNYWGQGTQVTVSS | low polyreactivity
41 | QVQLVESGGGLVQAGGSLRLSCPASGFTFYYYAMGWYRQAPGKERELVAAISYSGGSTYYADSVKGRFTISRDNAKNTVYLQMNRLKPEDTAVYYCAADLSTYRRGFDYWGQGTQVTVSS | high polyreactivity
42 | QVQLVESGGGLVQAGGSLRLSCAASGITFWPYALGWYRPAPGKERELVAAIRASVGRTYYADSVKGRFTISRDNAKNTVYLQMNSLKPEDTAVYYCNAYGRYGKFRVEYDYWGQGTQVTVSS | low polyreactivity
43 | QVQLVESGGGLVQAGGSLRLSCAASGIIFGKYAMGGYRQAPGKERELVAAISSSGGRTYYADSGKGRFTISRDNAKNNVYLQMNSLKPEDTAVYYCAAVPGPGYYHYGYWGQGTQVTVSS | high polyreactivity
